Drawing on a protein production outcome set (Wang et al. 2014), this text covers protein production for 18 sequences.

The data set can be described thus: label from the status in PepcDB records.
In the case of “MKKAMLLIKNGKILTMTGVNYDSGSVLIDNGKIIKVGENIDVDESCEIIDADGFWVMPGIIEAHCHVGIQEEKRGFEGNDCNEMTNPVTPYLRALDGINPMDSAFYTALTAGITGIMVGPGSANVVGGQWMFLKTYGRAIDKMVVLQPSAMKIAFGENPKANYDKKNMMPSTRIAIAAMLREELFEAQQYYEKRKNAEKSGDSFNKEFRKECWVPVFDKKIPLKAHVHRADDILTAIRIAKEFNLNLTLDHCTEGHLVAKEIKESGFPAIVGPTLTSRNKIETQYADFKTAGILHNEGVKVAITTDHPVTRIQDLLICAGLAAKEGLGIEEGLKAITINPAEICNVANRVGSIEVNKDADIAIFDGNPMETFTKTMYTIINGEIVYSLKDKNY”, the protein production result is given as “failed”.
To “MKTTLIISTYNRPEALSVCLDSVRFQTVMPDEVIVGDDGSTSETKDLIESFKKDFPVPLIHLWQEDKGFRLAMMRNKSVAAATGDYIIEIDGDIFLHNKFVEDHKRLAKPGHYLRGTRVNLGQKLTEEICKSKVNRRIYPWTIGIQNRAETAIHSTPVSNFFADRYKKNVSSGLGCNMSFWRSDFLAINGYDEFFEGWGKEDDDLTHRLQRKGCKKRSLRFAGIVYHLWHGHESMESDQKNAEYFRKNNEKNIVYCENGVSKYLKQELEHHHHHH” belongs “not failed”; to “RTRHLFEMTRELSRALTLEEVVRTSYHFLSSAFDAKVCLLMPNHHGELTPYNAEGMGQLPIDSGIARWCWDKDQIAGAGTDTLPSVPYQLHPISASQQVLAILAIEPNNLRQVLIPEQQQLLQTFNGLIANALERLQQAEMAEQSRINIEREQ”, “not failed”; to “MTNLRKILLIPALIVVSVSSFFSCGVDRWPEYAHLTELDTWMYDIMQQNYLWYQYMPGYDEVNLFQDPATFLSKAKWDKDSYSFVDSVLEAPLPTYGFDYSLVKSQDNDTAYNALITYVIPESPAEKAGLQRGDWIMKVDTSYISKKYETQLLQGTIARELSMGVWKEVEEEPEEGEEVPEEPVMVYKVVPNGVTLDLGAAQSIEDQPVHKYKILTLDNGAKVGYLMYNSFTAGTNNDPEKYNNELRKVSTIFQEANVQATILDLRYNEGGSLDCVQLLATILVPNARMGTPMAYLEYNDKNLDKDATINFDQEVLKTGVNLNQNTLVAITSGTTAGAAEMLLTSLYKEEQAPNIIVMGSASKGQTVATEQFINETYRWSVNPVVCTVYNSDHDAGEDAFVLVPSDKFKISETSINGTTDYSQFLPFGNPKERMLSIAIQTLEGTYPPKDEDKEEETRSTKSIKIEKSVSSPASRRFAGGLRIK”, “failed”.
To “TATNHQGLPAVDSEILEMPPEKADGVVEGIDVNGPKAQLMLRYPDGKREQITLPEQAKLLALVKHVQSKGYPNERFELLTNFPRRKLSHLDYDITLQEAGLCPQETVFVQE” belongs “not failed”.
With “MIENEFGEVSVDDQLIGDRATQIKTLTNGCICCSRSNELEDALLDLLDNLDKGNIQFDRLVIECTGMADPGPIIQTFFSHEVLCQRYLLDGVIALVDAVHADEQMNQFTIAQSQVGYADRILLTKTDVAGEAEKLHERLARINARAPVYTVTHGDIDLGLLFNTNGFMLEENVVSTKPRFHFIADKQNDISSIVVELDYPVDISEVSRVMENLLLESADKLLRYKGMLWIDGEPNRLLFQGVQRLYSADWDRPWGDEKPHSTMVFIGIQLPEEEIRAAFAGLRK” the entry was “not failed”; with “MRGKQSHMSCEHYSNNCLVRFECCSSLYPCRLCHDKAEAHRANRYEVSQIVCGTCNLLQPKTQTCLQCLAAVSKYFCSKCNLWDSSDDQIFHCDGCNVCRRGDPKSSFHCDICQTCLVTRGPRDHTHVENTASGNCPICAEEMSESMEVLVLLRCGHSLHERCFNEFIKETYTCPMCSKPIGDTSIINRKVECLLGMEPPSPEQSPKNIAKCTNCNNLSKCGAIQNKCPFCGLRGVVDAAQEKNVKSQCLKPEE”, “failed”.
For the sequence “MESKEERALNNLIVENVNQENDEKDEKEQVANKGEPLALPLNVSEYCVPRGNRRRFRVRQPILQYRWDIMHRLGEPQARMREENMERIGEEVRQLMEKLREKQLSHSLRAVSTDPPHHDHHDEFCLMP”, the protein production result is “not failed”.
To “MDNLSFHDGNIFNLLHTRSQDPSHEVDQRMQFHSSLVRRLSQEQELEGHQGCVNALAWNSNGSLLISGSDDLRINIWNYSSRKLLHSIDTGHTANIFCTKFVPETSDELVVSGAGDAEVRLFNTSRLSGRAEDDNAIIPSALYQCHTRRVKKLAVEPGNPNVVWSASEDGTLRQHDFRESTSCPPAGTAHQECRSVLLDLRSGAKRALADPPKQTLSLKSCDISATRPHLLLVGGSDAFARLYDRRMLPPLASSRKRMPPPPCVNYFCPMHLSERGRTNLHLTHVTFSPNGEEVLLSYSGEHVYLMNVNNGICSTGIMQYTPGDVDNLFSFSNNLHDVESPPQVSTTPQNGFHRSSNAATVKKCTELVEIAKWSLEEGTDVFYAIEAANEVLDAHSNDIESALRHECLCTRAALLLKRKWKNDAHMAVRDCHNARRIDASSFKAHYYMSEALQQLGKCKEALDFATAAQHMNPSDADIVAKVESIKRDLQAAGAEKNEETGAGTTRVLSLSDILYRSEANSDSSHDMSRSEREDSDYDEELELDIQTSLSDDEGRDTDSNSMRGSLNLRIHRVGDDKPMENTVDNASSGTASSSQNDRTSYQPEGAIDMKRRYVGHCNVGTDIKQASFLGQRGEYIASGSDDGRWFIWEKQTGRLMKVLVGDESVLNCIQCHPFDSVVATSGIDNTIKIWSPTASVPSIVAGGSAGPATANVVEVMESNQQKLSRNRENPLSVELMQRFRMQEFAEGNFHPFECTQS” belongs “failed”; to “MDTMRDRFAPVVSRLLDEDPRVVVVLAEIGKDGFTEARRRHPDRVINVGIREQLLVGAGAGLALTGLRPVLHTFASFLVERPFEQVKLDLGHQDVGAVLVSAAASFDWPAGGYTHMSPGDVALLDTLDGWTMHVPGHPDEAETLLRHAVAAGDDKVYVRLSVQSNARRRAVDGERFLTVREGRAGVVVAVGPLLDPVLEATEGLDVTVLYATTVRPFDAVALRRATETAGTDVVLVEPYLAGTSTAAANDALHDVPHRVLGLGVGRPELRRYGSVDEHMAAHGLDAGSLRQRIAEFAGAPARA”, “failed”.
To “MQESGCRLEHPSATKFRNHVMEGDWDKAENDLNELKPLVHSPHAIVVRGALEISQTLLGIIVRMKFLLLQQKYLEYLEDGKVLEALQVLRCELTPLKYNTERIHVLSGYLMCSHAEDLRAKAEWEGKGTASRSKLLDKLQTYLPPSVMLPPRRLQTLLRQAVELQRDRCLYHNTKLDNNLDSVSLLIDHVCSRRQFPCYTQQILTEHCNEVWFCKFSNDGTKLATGSKDTTVIIWQVDPDTHLLKLLKTLEGHAYGVSYIAWSPDDNYLVACGPDDCSELWLWNVQTGELRTKMSQSHEDSLTSVAWNPDGKRFVTGGQRGQFYQCDLDGNLLDSWEGVRVQCLWCLSDGKTVLASDTHQRIRGYNFEDLTDRNIVQEDHPIMSFTISKNGRLALLNVATQGVHLWDLQDRVLVRKYQGVTQGFYTIHSCFGGHNEDFIASGSEDHKVYIWHKRSELPIAELTGHTRTVNCVSWNPQIPSMMASASDDGTVRIWGPAPFIDHQNIEEECSSMDS” belongs “failed”; to “TEDSLMPEEEFLRRNKGPVSIKVQVPNMQDKTEWKLNGQGLVFTLPLTDQVSVIKVKIHEATGMPAGKQKLQYEGIFIKDSNSLAYYNMASGAVIHLALKER”, “not failed”; to “MWTYSEYIIFFGIYSFIGWVLETIFASVNDKKIVNRGFLTGFFCPIYGFGAILTVQCSRMVGLSFKNPIISLISSVIFSIFLVTFLEYVTGFILEAIFNCKWWDYSNDAANIHGYICLKYSLLWGMLAFLLVQTIHPLISKMVFNISATTKEKVSIFLLVYFMIDTIKSVIDALNLRQAIMEYSNFSINKYRERILKYKRLIIAFPRLIILNRDIRRIVNDRFYKIKLEIKSKIQELF”, “failed”.
To “MWSVTGALTVAVPPTAAACRTKPFLISSSFPKQTKKLHLSSPSLSLPSSHFSSSFKTAATSIEQQSSVNKGESTKYHFLVANAKFMLDEEEHFQEQLFERLRYFGERELVQDFWLVIEPKFLDNFPKITQRLRRPAVALVSTNGTWITFMKLRLDRVLYDSFEATSLDEALASNPTTLEFDKPKNWVAPYPKYEPGWWDTFLPKVTQESAV” belongs “failed”; to “MTPMKTYDLIVIGTGPGGYHAAIRAAQLGLKVLAVEAGEVGGVCLNVGCIPTKALLHAAETLHHLKVAEGFGLKAKPELDLKKLGGWRDQVVKKLTGGVGTLLKGNGVELLRGFARLVGPKEVEVGGERYGAKSLILATGSEPLELKGFPFGEDVWDSTRALKVEEGLPKRLLVIGGGAVGLELGQVYRRLGAEVTLIEYMPEILPQGDPETAALLRRALEKEGIRVRTKTKAVGYEKKKDGLHVRLEPAEGGEGEEVVVDKVLVAVGRKPRTEGLGLEKAGVKVDERGFIRVNARMETSVPGVYAIGDAARPPLLAHKAMREGLIAAENAAGKDSAFDYQVPSVVYTSPEWAGVGLTEEEAKRAGYKVKVGKFPLAASGRALTLGGAEGMVKVVGDEETDLLLGVFIVGPQAGELIAEAALALEMGATLTDLALTVHPHPTLSESLMEAAEAFHKQAIHILNR”, “not failed”.
For “MGVARPNFFIVGAAKCGTSSLDRYLSQHPDIYIPPKKEAHFFSIPDFPERFTGPGDEGMNLYTIRDEDAYMRLFDGVRGERAVGEASVFYLFYPGTAQRMYDAYPDAKILIMLRNPVDRAFSAYMHLVRDERETLSFRESLAKEEERIRQHYEPLWYYRAVGLYAAQVKRYLDVFGREQVKVILFEEFARDPVQVVRDCCAFLGVSTDFVPDTSIRHNESGVPKSRSLYNFIAKPNALKEIVKPFIPAAVRERLGNRAKSMVLGRMEMEPDLREELTAFFAPDVARLEALIHRDLSAWRRPARAAGSQ”, the protein production entry is reported as “not failed”.
As to “MPDSPLPLYHKVYLLLKQRLQSGGFALNAAMPGENALAAEYGVSRLTIRRSLEALESEGLIERRQGRGTFAAEGAILSAPQHSADIDTLMAHLARMGMHTQVNLLELDTVPATPQVAAQLELPAGAPVQRAVRVRSHQGLPFSYLVTYVPGEIGQRIRREDLGAKPLLAIFRDLGVRVARAQQSISAVLAEPGTAGALDVPVGSALLSLQRLVRDDAGRPVEWLHALYRPDRYEYRLDMQAHDTPGQPTWLPAGAPRRA”, the protein production result is given as “failed”.
With “KDAAWLNGWTSYNKVAREIVLAEMANTTILEEGKIVAELRRLLPDKAGLFIGNSMPIRDVDTYFSQIDKKIKMLANRGANGIDGVVSSALGASVVFQPMFLLIGDLSFYHDMNGLLMAKKYKMNLTIVIVNNDGGGIFSFLPQANEPKYFESLFGTSTELDFRFAAAFYDADYHEAKSVDELEEAIDKASYHKGLDIIEVKTNRHENKANHQALWVKIADALKALD” the entry was “failed”.
